± gives the half width of the 95% confidence interval.
Experiments:
[1] = folding stability dG unfold (combined trypsin and chymotrypsin); higher = more stable
In short: (§1)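 How resistant each design was to proteolysis was captured as K50, inferred by Bayesian fitting of sequencing counts. Unfolding free energy was then derived relative to a sequence-predicted unfolded-state K50 and a shared folded-state K50, per protease or combined. Digestion used trypsin and chymotrypsin at 11 threefold-diluted concentrations plus a no-protease condition, on mini-proteins under 80 residues without cysteine in a PA-tagged cDNA display construct. Designs were kept only when AlphaFold2 dimer inter-PAE was above 15.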

[2] = folding stability dG unfold from trypsin proteolysis; higher = more stable
In short: as §1

[3] = folding stability dG unfold from chymotrypsin proteolysis; higher = more stable
In short: as §1

## SAGGPVTTVSVSGFVLPDGSRALLVTVATYYPDGYVAVPPVLVLVYPNGESEASTSTLVVKVPGGALSAGGS [r16_505_TrMRF]
[1]
  folding stability dG unfold: 2.79 ± 0.04 kcal/mol
[2]
  folding stability dG unfold: 2.3 ± 0.056 kcal/mol
[3]
  folding stability dG unfold: 3.008 ± 0.011 kcal/mol

## SAGGSSVRISFPNGYTVEITVTEDSATITLRSPTSTETVEFPSSVQVTITGPLNQPVTFDIPSSSESAGGSA [r2_57_TrMRF]
[1]
  folding stability dG unfold: 2.8 ± 0.057 kcal/mol
[2]
  folding stability dG unfold: 2.77 ± 0.077 kcal/mol
[3]
  folding stability dG unfold: 2.811 ± 0.024 kcal/mol

## SAGGMETWRIKVDGKEIEVTVEDGKITVTFADGTKVEITLEEGETPEEVAKRLAEELGADKVEIEKVPSAGG [r13_852_TrROS_Hall]
[1]
  folding stability dG unfold: 3.3 ± 0.19 kcal/mol
[2]
  folding stability dG unfold: 3.38 ± 0.48 kcal/mol
[3]
  folding stability dG unfold: 3.31 ± 0.078 kcal/mol

## SAGGSAGGSAGPKIEIEKLPGPYYLLKIYLPDENGNPIEALVVATSPEEAVEKLKELLKSSAGGSAGGSAGG [r11_819_TrMRF]
[1]
  folding stability dG unfold: 3.18 ± 0.098 kcal/mol
[2]
  folding stability dG unfold: 3.21 ± 0.14 kcal/mol
[3]
  folding stability dG unfold: 3.15 ± 0.043 kcal/mol

## SAGGFNRKVTVRVKVPATGEEFEFEFDFEGLTLEEIKRKIKEEIKKKGIVLKPDNPVVIEITDLEEDPASAG [r5_230_JUSTAS]
[1]
  folding stability dG unfold: 3.98 ± 0.33 kcal/mol
[2]
  folding stability dG unfold: 4.13 ± 0.34 kcal/mol
[3]
  folding stability dG unfold: 3.86 ± 0.21 kcal/mol

## SAGGSAGGSPPPIEIRFPNGWEIDKIDPDDAHIILRMPNWIISIEIDPKDGEIDIDIVPNADVSAGGSAGGS [r12_243_TrROS]
[1]
  folding stability dG unfold: 1.71 ± 0.27 kcal/mol
[2]
  folding stability dG unfold: 1.15 ± 0.1 kcal/mol
[3]
  folding stability dG unfold: 2.09 ± 0.32 kcal/mol

## SAGGSAGGSAGPPKPIWFRVKEVEVNPDNGTLEIKFENGQTITIPPENIENLPPGDWIRISAGGSAGGSAGG [r11_124_TrROS]
[1]
  folding stability dG unfold: 1.33 ± 0.058 kcal/mol
[2]
  folding stability dG unfold: 0.838 ± 0.029 kcal/mol
[3]
  folding stability dG unfold: 1.53 ± 0.061 kcal/mol

## MEITTTPYTDPNSETTYWLITATLPDGRRITIVITKPAGGPWTVEVYAPDGTRISSKTYSSEEEAIEEALTS [r1_478_JUSTAS]
[1]
  folding stability dG unfold: 3.25 ± 0.052 kcal/mol
[2]
  folding stability dG unfold: 3.3 ± 0.051 kcal/mol
[3]
  folding stability dG unfold: 3.2 ± 0.036 kcal/mol

## SAGGELPLSDITVESESPVTGGSWTVTLEVPSLGLRITVPAAELGAVAASTPGVATSLSPVSPAEPASAGGS [r16_61_JUSTAS]
[1]
  folding stability dG unfold: 0.225 ± 0.091 kcal/mol
[2]
  folding stability dG unfold: -0.251 ± 0.11 kcal/mol
[3]
  folding stability dG unfold: 0.454 ± 0.093 kcal/mol

## SASITHTVPGVQVRAYLNPDGYMFIQVYNPNDGEPKQPIWMPPDHITDVEVTGDWVKITIKMDPEDFKLSAG [r14_755_TrROS]
[1]
  folding stability dG unfold: 2.06 ± 0.16 kcal/mol
[2]
  folding stability dG unfold: 1.25 ± 0.052 kcal/mol
[3]
  folding stability dG unfold: 2.32 ± 0.08 kcal/mol

## SAKMKLPEGAKPIAEKDGITIVEVPNKVIIRVRLPDGKEVTLTFPKSDLEEIEALIRELKDAGIEEIEFSAG [r14_12_TrROS_Hall]
[1]
  folding stability dG unfold: 0.815 ± 0.07 kcal/mol
[2]
  folding stability dG unfold: 0.876 ± 0.024 kcal/mol
[3]
  folding stability dG unfold: 0.762 ± 0.12 kcal/mol

## SAGGTSYLVRLELYETSTGEPLELELPFPNLPAEEVEELAKELAKALAEPTGNDLKARVEVVPLPDESAGGS [r8_185_TrMRF]
[1]
  folding stability dG unfold: 0.53 ± 0.052 kcal/mol
[2]
  folding stability dG unfold: 0.0944 ± 0.031 kcal/mol
[3]
  folding stability dG unfold: 0.717 ± 0.054 kcal/mol

## SAGGSAGGSAPFQIEDIEVEYHRMPPGMPYYPVRARLPGTGREVEIHMPGMPVEDVLDRIIDSAGGSAGGSA [r18_345_TrROS]
[1]
  folding stability dG unfold: -0.141 ± 0.061 kcal/mol
[2]
  folding stability dG unfold: -0.446 ± 0.13 kcal/mol
[3]
  folding stability dG unfold: -0.0225 ± 0.088 kcal/mol

## SAGGSAGGSASIPELAEELGLPAEVEVTEDVEPEKPVVYPVVVREPGGGEVRVVPVVLPPGVSAGGSAGGSA [r18_313_JUSTAS]
[1]
  folding stability dG unfold: 0.922 ± 0.16 kcal/mol
[2]
  folding stability dG unfold: -0.223 ± 0.14 kcal/mol
[3]
  folding stability dG unfold: 1.36 ± 0.043 kcal/mol

## SAGGSAGGSAGGEAKIKLEVEETPGGLVIRAEVEVDGKLYEVELRIKGDEIVEVKIKPLDSAGGSAGGSAGG [r7_187_TrROS_Hall]
[1]
  folding stability dG unfold: 2.5 ± 0.17 kcal/mol
[2]
  folding stability dG unfold: 2.13 ± 0.097 kcal/mol
[3]
  folding stability dG unfold: 2.62 ± 0.2 kcal/mol

## SAGGSAGGSAGGSGMSVKREVLEVEEFPGPGRVVRVLERVTLPDGTELLREIEEVIDLLSAGGSAGGSAGGS [r4_50_JUSTAS]
[1]
  folding stability dG unfold: 0.871 ± 0.058 kcal/mol
[2]
  folding stability dG unfold: 0.219 ± 0.068 kcal/mol
[3]
  folding stability dG unfold: 1.12 ± 0.049 kcal/mol

## SAGGSAGGSAGKNPDGQPAPTIEIEPRTRELPDNGYKITIMRIRFPDSGVEFPMIMISPPSAGGSAGGSAGG [r17_31_TrROS]
[1]
  folding stability dG unfold: 1.29 ± 0.1 kcal/mol
[2]
  folding stability dG unfold: 0.833 ± 0.072 kcal/mol
[3]
  folding stability dG unfold: 1.51 ± 0.091 kcal/mol

## SAGGSAMEELKEKVLEAWKKLTPDTPVTIKEINPEKKEITIETTSEEAKEKLKKAAKEMGIKIKIKSAGGSA [r15_196_JUSTAS]
[1]
  folding stability dG unfold: 0.63 ± 0.39 kcal/mol
[2]
  folding stability dG unfold: 0.71 ± 0.27 kcal/mol
[3]
  folding stability dG unfold: 1.28 ± 0.33 kcal/mol

## SAGGSAGGSPNRKEIYIPISEEQFKENGMTPEEIADRIAEKFPHIPPNVRIEYPPNGWIKITVSAGGSAGGS [r12_50_TrROS]
[1]
  folding stability dG unfold: 0.229 ± 0.21 kcal/mol
[2]
  folding stability dG unfold: 0.198 ± 0.11 kcal/mol
[3]
  folding stability dG unfold: -0.208 ± 0.33 kcal/mol

## SAGGSEITEEEAEKLKELFPNADITVEKVKPGETKTFPNGFRIEKTEDGYRVTVTLPNGEKLEFPVSAGGSA [r2_166_TrROS_Hall]
[1]
  folding stability dG unfold: 1.33 ± 0.11 kcal/mol
[2]
  folding stability dG unfold: 1.1 ± 0.043 kcal/mol
[3]
  folding stability dG unfold: 1.37 ± 0.053 kcal/mol

## SAGGSAGGEDPNFTPPVKVYYLDLEIEVKPNEIEKLKEEFPDLEAEYEKLGDTYKVKLRIPVPVSAGGSAGG [r6_685_TrMRF]
[1]
  folding stability dG unfold: 1.85 ± 0.17 kcal/mol
[2]
  folding stability dG unfold: 1.51 ± 0.077 kcal/mol
[3]
  folding stability dG unfold: 2.03 ± 0.12 kcal/mol

## SAGGMKTVIVRVRRDSPEVRKALEALRKAKPGEEVELTVKGKKIRIVKIEEVDGEYYVTVEIEEEEESAGGS [r16_404_TrROS_Hall]
[1]
  folding stability dG unfold: 3.75 ± 0.093 kcal/mol
[2]
  folding stability dG unfold: 3.39 ± 0.074 kcal/mol
[3]
  folding stability dG unfold: 3.96 ± 0.062 kcal/mol

## SAGTIRIVVPAEELSDEEIEALAEELRKLFPNAKIVRVERRVETLPDGRKRTYVVLEIHIELPPPPEEESAG [r5_835_TrROS_Hall]
[1]
  folding stability dG unfold: 4.26 ± 0.14 kcal/mol
[2]
  folding stability dG unfold: 4 ± 0.13 kcal/mol
[3]
  folding stability dG unfold: 4.33 ± 0.12 kcal/mol

## SAGKMKIIEVKPGEEIKITIPEEGKKVKIYVYNKNGEKVEEKEVEIKPGQTLTFKIPKEDAKVIIEIEDSAG [r5_797_TrROS_Hall]
[1]
  folding stability dG unfold: 2.82 ± 0.18 kcal/mol
[2]
  folding stability dG unfold: 1.75 ± 0.062 kcal/mol
[3]
  folding stability dG unfold: 3.11 ± 0.039 kcal/mol

## SAGGYYKDPNGKPREPVPKVEPKPVTITFPNLTPEQADYLADYLRDLGLEVKYDPENGMLTAEFWIYSAGGS [r16_765_TrROS]
[1]
  folding stability dG unfold: 1.71 ± 0.11 kcal/mol
[2]
  folding stability dG unfold: 1.23 ± 0.033 kcal/mol
[3]
  folding stability dG unfold: 1.95 ± 0.077 kcal/mol

## SAGSAYRIEVYNPETGKKVEIFVFPNGEALVKEEDGFSKIYIDPSKPEQVEAIAKEIEPLGVEVKISPWSAG [r5_791_TrMRF]
[1]
  folding stability dG unfold: 1.35 ± 0.34 kcal/mol
[2]
  folding stability dG unfold: 1.4 ± 0.1 kcal/mol
[3]
  folding stability dG unfold: 1.29 ± 0.29 kcal/mol

## SPAEINIEFDPEEGRLRIKVKLEWPGGDPEPIATHEVPIGNNRYITYPIYKHPDGPWRIEDIDIMPPDELSA [r9_780_TrROS]
[1]
  folding stability dG unfold: 0.727 ± 0.35 kcal/mol
[2]
  folding stability dG unfold: 0.283 ± 0.14 kcal/mol
[3]
  folding stability dG unfold: 1 ± 0.15 kcal/mol

## SAGGSKKKEEVKEIDVVLVEVSEEEALKLAEETGKAVIVVFPDGELRIFYPDGTVETIKLPDLEELSAGGSA [r2_34_TrROS_Hall]
[1]
  folding stability dG unfold: 0.296 ± 0.21 kcal/mol
[2]
  folding stability dG unfold: 0.377 ± 0.062 kcal/mol
[3]
  folding stability dG unfold: 0.0647 ± 0.082 kcal/mol

## SAGGIEVEAESERVEGGVLRVTVTAADPDGVPIVLELPVPPGAPEITEEEARELAVEAALKVAAELASAGGS [r8_123_TrMRF]
[1]
  folding stability dG unfold: 0.699 ± 0.053 kcal/mol
[2]
  folding stability dG unfold: 0.887 ± 0.034 kcal/mol
[3]
  folding stability dG unfold: 0.517 ± 0.034 kcal/mol

## SAGGSAGGEGWRPLNVWIPFPDPKARLDEIVDMISKLFGWPIKIKITEVIPGDPDMIRVTIYVPSAGGSAGG [r6_211_TrROS]
[1]
  folding stability dG unfold: 3.47 ± 0.091 kcal/mol
[2]
  folding stability dG unfold: 3.41 ± 0.11 kcal/mol
[3]
  folding stability dG unfold: 3.53 ± 0.056 kcal/mol

## SAGPEITREFVSYDPETGLRYFEYTLINKKNGKEVKKVKVGYSLYDLASGTERPLPEEELKKRAEEALKSAG [r5_909_JUSTAS]
[1]
  folding stability dG unfold: 0.24 ± 0.16 kcal/mol
[2]
  folding stability dG unfold: -0.118 ± 0.13 kcal/mol
[3]
  folding stability dG unfold: 0.433 ± 0.16 kcal/mol

— the supplement of paper PMC12764529
